Experimental data from patent publication US20250262210A1 (TRUSTEES OF COLUMBIA UNIVERSITY IN THE CITY OF NEW YORK, published 2025).

How the values were obtained:
Experiment in all cases: IP/MS, LZTR1 R810W-FLAG, U87
PARP10 = biological target: T1, PARP10 (human, UniProt Q53GL7 1-1025)
T1 sequence (looked up): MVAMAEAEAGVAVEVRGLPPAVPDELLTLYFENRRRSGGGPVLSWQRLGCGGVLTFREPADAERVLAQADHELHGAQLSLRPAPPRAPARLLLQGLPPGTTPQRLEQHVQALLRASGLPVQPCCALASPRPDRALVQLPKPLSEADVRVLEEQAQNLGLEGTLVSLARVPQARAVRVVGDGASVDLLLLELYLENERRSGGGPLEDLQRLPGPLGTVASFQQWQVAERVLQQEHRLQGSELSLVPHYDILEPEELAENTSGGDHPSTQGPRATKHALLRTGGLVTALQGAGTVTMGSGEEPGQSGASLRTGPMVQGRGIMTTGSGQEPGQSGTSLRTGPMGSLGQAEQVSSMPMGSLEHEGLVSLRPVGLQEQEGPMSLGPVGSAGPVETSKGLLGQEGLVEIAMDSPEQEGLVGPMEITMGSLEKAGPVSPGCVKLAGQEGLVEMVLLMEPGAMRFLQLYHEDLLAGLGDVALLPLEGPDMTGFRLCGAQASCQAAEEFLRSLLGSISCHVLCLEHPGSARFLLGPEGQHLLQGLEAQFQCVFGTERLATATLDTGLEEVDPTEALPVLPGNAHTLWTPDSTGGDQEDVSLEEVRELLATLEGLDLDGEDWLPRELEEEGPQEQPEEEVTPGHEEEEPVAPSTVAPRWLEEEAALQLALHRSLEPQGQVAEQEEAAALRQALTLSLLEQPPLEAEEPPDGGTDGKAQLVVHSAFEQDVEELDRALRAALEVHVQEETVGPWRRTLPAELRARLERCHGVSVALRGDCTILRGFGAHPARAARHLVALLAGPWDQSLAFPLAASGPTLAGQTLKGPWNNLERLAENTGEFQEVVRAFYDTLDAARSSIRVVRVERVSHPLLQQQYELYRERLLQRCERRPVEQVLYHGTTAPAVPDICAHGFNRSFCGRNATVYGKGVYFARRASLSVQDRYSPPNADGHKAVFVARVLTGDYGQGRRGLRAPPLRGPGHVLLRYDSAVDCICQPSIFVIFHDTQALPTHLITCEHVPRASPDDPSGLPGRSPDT
Summary of the method: (§1)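 Extracted peptides in 3% acetonitrile/0.1% formic acid ran on a 50 cm C18 column into an Orbitrap Fusion, with MaxQuant identification and spectral counting.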

MTR = MTR (human, UniProt Q99707 1-1265, limits assumed)
Summary of the method: as §1

KIAA1217 = KIAA1217 (human, UniProt Q5T5P2 1-1943, limits assumed)
KIAA1217, sequence (Q5T5P2 whole entry): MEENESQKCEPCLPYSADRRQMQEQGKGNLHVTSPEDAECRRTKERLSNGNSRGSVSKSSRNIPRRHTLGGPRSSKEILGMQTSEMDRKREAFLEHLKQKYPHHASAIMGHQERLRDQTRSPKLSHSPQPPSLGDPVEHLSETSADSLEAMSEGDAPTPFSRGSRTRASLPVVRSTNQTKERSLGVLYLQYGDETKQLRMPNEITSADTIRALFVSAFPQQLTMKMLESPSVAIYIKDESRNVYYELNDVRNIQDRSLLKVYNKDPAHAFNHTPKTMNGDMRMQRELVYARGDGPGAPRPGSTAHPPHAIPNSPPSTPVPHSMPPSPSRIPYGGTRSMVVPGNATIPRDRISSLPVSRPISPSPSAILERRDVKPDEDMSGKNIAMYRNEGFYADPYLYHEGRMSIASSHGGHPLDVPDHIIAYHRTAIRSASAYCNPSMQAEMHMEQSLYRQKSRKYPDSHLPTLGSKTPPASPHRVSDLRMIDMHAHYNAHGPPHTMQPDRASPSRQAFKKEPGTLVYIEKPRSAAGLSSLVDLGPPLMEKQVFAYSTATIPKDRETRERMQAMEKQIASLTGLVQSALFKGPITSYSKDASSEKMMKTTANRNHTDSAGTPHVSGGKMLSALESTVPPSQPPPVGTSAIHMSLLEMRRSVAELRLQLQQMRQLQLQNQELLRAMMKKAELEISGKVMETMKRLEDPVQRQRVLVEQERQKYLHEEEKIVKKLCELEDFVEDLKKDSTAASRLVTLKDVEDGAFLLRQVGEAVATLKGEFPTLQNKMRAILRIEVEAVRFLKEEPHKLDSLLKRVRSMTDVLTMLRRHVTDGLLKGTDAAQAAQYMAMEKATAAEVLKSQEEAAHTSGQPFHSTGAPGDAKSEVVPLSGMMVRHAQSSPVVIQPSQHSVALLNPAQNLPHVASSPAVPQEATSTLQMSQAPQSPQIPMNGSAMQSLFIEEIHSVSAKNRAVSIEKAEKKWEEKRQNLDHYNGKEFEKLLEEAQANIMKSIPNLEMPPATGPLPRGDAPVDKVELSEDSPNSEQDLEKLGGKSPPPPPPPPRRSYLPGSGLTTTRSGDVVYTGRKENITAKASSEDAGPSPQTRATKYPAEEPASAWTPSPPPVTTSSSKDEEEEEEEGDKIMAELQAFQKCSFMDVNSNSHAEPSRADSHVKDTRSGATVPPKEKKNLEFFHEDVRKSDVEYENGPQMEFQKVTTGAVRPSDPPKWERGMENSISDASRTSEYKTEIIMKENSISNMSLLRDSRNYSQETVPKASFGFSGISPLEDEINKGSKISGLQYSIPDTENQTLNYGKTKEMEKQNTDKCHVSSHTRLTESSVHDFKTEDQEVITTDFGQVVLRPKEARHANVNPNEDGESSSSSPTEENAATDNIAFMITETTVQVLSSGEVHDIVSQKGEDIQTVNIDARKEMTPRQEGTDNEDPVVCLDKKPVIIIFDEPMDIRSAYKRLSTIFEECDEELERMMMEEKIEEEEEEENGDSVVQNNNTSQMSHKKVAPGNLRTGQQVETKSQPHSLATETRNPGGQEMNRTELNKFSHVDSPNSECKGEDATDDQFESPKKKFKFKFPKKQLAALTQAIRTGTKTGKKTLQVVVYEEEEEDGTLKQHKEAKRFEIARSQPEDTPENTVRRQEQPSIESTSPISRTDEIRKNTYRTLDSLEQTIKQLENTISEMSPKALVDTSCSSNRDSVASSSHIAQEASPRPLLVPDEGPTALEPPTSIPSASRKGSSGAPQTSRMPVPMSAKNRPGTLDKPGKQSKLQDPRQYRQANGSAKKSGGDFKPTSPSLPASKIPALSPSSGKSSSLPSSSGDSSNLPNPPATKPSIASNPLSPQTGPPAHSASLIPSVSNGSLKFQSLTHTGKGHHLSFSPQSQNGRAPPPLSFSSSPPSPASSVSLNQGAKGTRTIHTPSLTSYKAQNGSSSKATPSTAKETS
Summary of the method: as §1

RUSC2 = RUSC2 (human, UniProt Q8N2Y8 1-1516)
RUSC2, sequence (Q8N2Y8 whole entry): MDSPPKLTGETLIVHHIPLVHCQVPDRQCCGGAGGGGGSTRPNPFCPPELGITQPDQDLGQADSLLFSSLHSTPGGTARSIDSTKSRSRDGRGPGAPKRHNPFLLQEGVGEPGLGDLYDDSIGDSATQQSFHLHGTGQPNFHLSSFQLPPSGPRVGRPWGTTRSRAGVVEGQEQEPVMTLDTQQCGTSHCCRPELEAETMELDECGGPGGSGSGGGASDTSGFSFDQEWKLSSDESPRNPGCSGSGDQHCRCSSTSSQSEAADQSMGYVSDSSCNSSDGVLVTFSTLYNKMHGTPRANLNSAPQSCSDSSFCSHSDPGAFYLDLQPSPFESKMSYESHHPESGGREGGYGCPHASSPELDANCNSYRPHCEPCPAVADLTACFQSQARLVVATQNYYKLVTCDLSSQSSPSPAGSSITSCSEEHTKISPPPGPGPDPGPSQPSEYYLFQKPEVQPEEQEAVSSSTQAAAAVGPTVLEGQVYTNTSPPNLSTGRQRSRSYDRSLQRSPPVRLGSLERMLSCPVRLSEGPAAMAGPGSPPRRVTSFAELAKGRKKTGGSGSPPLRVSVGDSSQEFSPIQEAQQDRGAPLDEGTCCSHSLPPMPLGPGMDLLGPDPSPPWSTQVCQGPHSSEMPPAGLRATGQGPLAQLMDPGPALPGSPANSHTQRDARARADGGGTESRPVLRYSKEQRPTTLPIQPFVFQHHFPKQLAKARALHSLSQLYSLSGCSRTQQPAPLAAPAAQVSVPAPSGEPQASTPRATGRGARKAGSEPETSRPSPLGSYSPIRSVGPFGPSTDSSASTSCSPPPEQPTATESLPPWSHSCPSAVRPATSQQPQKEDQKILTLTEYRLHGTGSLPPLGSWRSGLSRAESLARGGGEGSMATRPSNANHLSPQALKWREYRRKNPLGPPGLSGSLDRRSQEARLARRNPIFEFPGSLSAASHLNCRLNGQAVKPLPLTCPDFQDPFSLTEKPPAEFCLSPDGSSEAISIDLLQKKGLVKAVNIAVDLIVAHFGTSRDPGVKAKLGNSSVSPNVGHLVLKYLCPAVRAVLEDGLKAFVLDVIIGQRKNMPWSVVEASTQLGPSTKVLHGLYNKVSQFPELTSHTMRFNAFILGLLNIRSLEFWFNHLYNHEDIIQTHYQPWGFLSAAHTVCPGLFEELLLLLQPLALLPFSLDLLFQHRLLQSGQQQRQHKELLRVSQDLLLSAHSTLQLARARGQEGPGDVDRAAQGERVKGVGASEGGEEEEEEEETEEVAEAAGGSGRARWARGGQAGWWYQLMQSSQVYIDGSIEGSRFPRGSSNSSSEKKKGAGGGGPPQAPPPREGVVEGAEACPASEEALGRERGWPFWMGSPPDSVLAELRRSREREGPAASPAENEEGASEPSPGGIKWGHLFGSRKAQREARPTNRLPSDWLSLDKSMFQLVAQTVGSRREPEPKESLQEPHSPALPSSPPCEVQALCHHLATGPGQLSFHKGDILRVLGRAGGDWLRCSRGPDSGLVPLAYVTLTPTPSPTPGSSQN
Summary of the method: as §1

ARHGEF40 = ARHGEF40 (human, UniProt Q8TER5 1-1519, limits assumed)
ARHGEF40, sequence (Q8TER5 whole entry): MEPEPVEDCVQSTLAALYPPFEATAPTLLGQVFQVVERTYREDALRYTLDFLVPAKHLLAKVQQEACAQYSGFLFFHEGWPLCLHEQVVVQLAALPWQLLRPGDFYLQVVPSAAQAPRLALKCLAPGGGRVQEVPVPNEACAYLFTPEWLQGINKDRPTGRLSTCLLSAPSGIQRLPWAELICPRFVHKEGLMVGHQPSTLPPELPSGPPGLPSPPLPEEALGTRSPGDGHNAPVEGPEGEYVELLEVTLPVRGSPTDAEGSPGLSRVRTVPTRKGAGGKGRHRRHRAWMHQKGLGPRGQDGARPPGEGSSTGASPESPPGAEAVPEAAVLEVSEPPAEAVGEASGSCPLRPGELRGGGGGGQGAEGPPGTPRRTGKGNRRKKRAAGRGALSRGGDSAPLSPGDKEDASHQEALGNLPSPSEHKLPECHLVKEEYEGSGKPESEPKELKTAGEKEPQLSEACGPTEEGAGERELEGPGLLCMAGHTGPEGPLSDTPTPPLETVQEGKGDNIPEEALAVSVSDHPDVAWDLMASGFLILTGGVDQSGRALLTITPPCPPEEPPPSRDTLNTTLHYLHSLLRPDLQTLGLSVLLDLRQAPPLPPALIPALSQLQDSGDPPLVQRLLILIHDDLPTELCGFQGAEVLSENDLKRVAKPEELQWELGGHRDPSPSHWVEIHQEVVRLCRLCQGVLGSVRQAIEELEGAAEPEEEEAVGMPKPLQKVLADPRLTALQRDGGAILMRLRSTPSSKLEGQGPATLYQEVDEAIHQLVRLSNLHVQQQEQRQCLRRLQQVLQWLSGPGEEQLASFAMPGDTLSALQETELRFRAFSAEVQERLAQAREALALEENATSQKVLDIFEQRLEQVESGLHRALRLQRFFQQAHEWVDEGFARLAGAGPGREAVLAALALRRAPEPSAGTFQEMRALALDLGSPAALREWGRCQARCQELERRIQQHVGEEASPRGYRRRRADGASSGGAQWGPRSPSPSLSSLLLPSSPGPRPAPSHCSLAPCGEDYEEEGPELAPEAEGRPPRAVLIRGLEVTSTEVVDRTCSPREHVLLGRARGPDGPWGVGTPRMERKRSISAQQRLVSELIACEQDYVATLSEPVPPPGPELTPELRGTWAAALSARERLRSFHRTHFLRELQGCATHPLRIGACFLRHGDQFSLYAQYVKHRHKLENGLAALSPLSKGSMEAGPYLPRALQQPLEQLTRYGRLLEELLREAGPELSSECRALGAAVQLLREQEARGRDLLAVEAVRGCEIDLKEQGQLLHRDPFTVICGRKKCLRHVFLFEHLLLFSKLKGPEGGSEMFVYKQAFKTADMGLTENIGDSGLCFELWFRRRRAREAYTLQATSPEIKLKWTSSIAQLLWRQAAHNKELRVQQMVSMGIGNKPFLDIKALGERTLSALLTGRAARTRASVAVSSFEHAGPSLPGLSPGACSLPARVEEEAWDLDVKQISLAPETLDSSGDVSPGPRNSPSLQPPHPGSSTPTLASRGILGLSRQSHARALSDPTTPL
Summary of the method: as §1

Measured: binding result

B1: LZTR1 R810W-FLAG (other, human, UniProt Q8N653 1-840, looked up)
chain: MAGPGSTGGQIGAAALAGGARSKVAPSVDFDHSCSDSVEYLTLNFGPFETVHRWRRLPPCDEFVGARRSKHTVVAYKDAIYVFGGDNGKTMLNDLLRFDVKDCSWCRAFTTGTPPAPRYHHSAVVYGSSMFVFGGYTGDIYSNSNLKNKNDLFEYKFATGQWTEWKIEGRLPVARSAHGATVYSDKLWIFAGYDGNARLNDMWTIGLQDRELTCWEEVAQSGEIPPSCCNFPVAVCRDKMFVFSGQSGAKITNNLFQFEFKDKTWTRIPTEHLLRGSPPPPQRRYGHTMVAFDRHLYVFGGAADNTLPNELHCYDVDFQTWEVVQPSSDSEVGGAEVPERACASEEVPTLTYEERVGFKKSRDVFGLDFGTTSAKQPTQPASELPSGRLFHAAAVISDAMYIFGGTVDNNIRSGEMYRFQFSCYPKCTLHEDYGRLWESRQFCDVEFVLGEKEECVQGHVAIVTARSRWLRRKITQARERLAQKLEQEAAPVPREAPGVAAGGARPPLLHVAIREAEARPFEVLMQFLYTDKIKYPRKGHVEDVLLIMDVYKLALSFQLCRLEQLCRQYIEASVDLQNVLVVCESAARLQLSQLKEHCLNFVVKESHFNQVIMMKEFERLSSPLIVEIVRRKQQPPPRTPLDQPVDIGTSLIQDMKAYLEGAGAEFCDITLLLDGHPRPAHKAILAARSSYFEAMFRSFMPEDGQVNISIGEMVPSRQAFESMLRYIYYGEVNMPPEDSLYLFAAPYYYGFYNNRLQAYCKQNLEMNVTVQNVLQILEAADKTQALDMKRHCLHIIVHQFTKVSKLPTLWSLSQQLLLDIIDSLASHISDKQCAELGADI
notes: Stably expressed in U87 cells by lentivirus; also called LZTR1-FLAG-R810W; LZTR1 RW; not shown: FLAG tag
binds: all assays above
